For series [1], the target named is Capu(1–321) (Drosophila) (UniProt Q24120).
The target of series [2] is Capu-NT, the N-terminal half of Cappuccino (aa 1–466) (Drosophila) (UniProt Q24120).
In series [3] the target is T1, Capu-CT, the C-terminal half of Cappuccino (aa 467–1059) (Drosophila, UniProt Q24120 467-1059).
T1 sequence (looked up): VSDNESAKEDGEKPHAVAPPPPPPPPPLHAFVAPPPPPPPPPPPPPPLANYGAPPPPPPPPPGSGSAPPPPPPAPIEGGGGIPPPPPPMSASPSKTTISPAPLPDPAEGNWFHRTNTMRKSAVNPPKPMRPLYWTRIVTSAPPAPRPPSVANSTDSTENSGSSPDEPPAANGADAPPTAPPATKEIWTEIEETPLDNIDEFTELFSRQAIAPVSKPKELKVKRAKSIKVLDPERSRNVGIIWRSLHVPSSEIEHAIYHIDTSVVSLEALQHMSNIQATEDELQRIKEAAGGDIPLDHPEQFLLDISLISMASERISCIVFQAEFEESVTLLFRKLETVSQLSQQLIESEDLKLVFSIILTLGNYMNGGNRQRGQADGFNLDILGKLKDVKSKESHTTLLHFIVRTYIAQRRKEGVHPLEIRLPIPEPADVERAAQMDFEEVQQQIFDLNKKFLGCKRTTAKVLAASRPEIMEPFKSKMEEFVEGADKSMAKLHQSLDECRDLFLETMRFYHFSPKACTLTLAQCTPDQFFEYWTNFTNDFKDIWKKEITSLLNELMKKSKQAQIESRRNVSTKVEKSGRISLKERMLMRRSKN
In words: cell-based or functional assay.

Series [4] addresses Capu-tail–Alexa Fluor 488 (Drosophila). The experiment in a line: fluorescence polarisation.
Series [5] concerns the molecule itself. In words: SEC-MALS. In general terms: Size exclusion chromatography separates by hydrodynamic size, large species first.
Series [6] deals with the molecule itself. In words: AUC.

Broadly, the Kd is the concentration at which binding is half-saturated. Read a high Kd as lower affinity. Broadly, the stoichiometry N is the number of molecules, sites or subunits per partner or assembly.

The molecule “Capu-tail (monomeric peptide cleaved from GST–Capu-tail)” displayed an EC50 of relief of Capu(1–321) inhibition of Capu-CT in the pyrene-actin assay in series [1] of 3000 nM.

Turning to “GST–Capu-tail (dimeric) (domain or fragment)”, the Kd calculated from the pyrene-actin competition assay (Vinson analysis) in series [2] was 167 nM.

B1: Capu(1–222) (domain or fragment, Drosophila, UniProt Q24120 1-222, looked up)
chain: MALQLGKKLAQVLGSGAGSPLTPGTMEPCAAGSGSPLANGELFNVSKAKKVELQNLSSRFTAAVTQTPPGVTSSTPNESGVTGPAGPLGATTSSPSLETQSTVIISFKSSQTPVQSQTNSAASENVEDDTAPLPLPPPPPGFGTPTTPLLSSNVLKKVASFTVEKSSAGNNSSNPPNLCPTSDETTLLATPCSSSLTVATLPPEIAVGAAAGGVAGGAGSRR
As for B1, the “inhibition activity in the pyrene-actin assay relative to Capu-NT, at 100 nM” value in series [3] was approximately 40%. The Kd in series [4] was 4800 nM.

B2: Capu(1–321) (domain or fragment, Drosophila, UniProt Q24120 1-321, looked up)
chain: MALQLGKKLAQVLGSGAGSPLTPGTMEPCAAGSGSPLANGELFNVSKAKKVELQNLSSRFTAAVTQTPPGVTSSTPNESGVTGPAGPLGATTSSPSLETQSTVIISFKSSQTPVQSQTNSAASENVEDDTAPLPLPPPPPGFGTPTTPLLSSNVLKKVASFTVEKSSAGNNSSNPPNLCPTSDETTLLATPCSSSLTVATLPPEIAVGAAAGGVAGGAGSRRGSSYVPEKLSFAAYEKFEGQMLIKWLISTMQSNPKSSSGDANQELFNTLALQFCNNLKYVGVLKQISNEHLDCGFSPYEMYQWTHTEQPTTSLPLTPGK
B2: in series [5], the “stoichiometry N” value stood at 2. Besides, the Kd in series [4] worked out at 300 nM.

B3: Capu-NT, the N-terminal half of Cappuccino (aa 1–466) (domain or fragment, Drosophila, UniProt Q24120 1-466, looked up)
chain: MALQLGKKLAQVLGSGAGSPLTPGTMEPCAAGSGSPLANGELFNVSKAKKVELQNLSSRFTAAVTQTPPGVTSSTPNESGVTGPAGPLGATTSSPSLETQSTVIISFKSSQTPVQSQTNSAASENVEDDTAPLPLPPPPPGFGTPTTPLLSSNVLKKVASFTVEKSSAGNNSSNPPNLCPTSDETTLLATPCSSSLTVATLPPEIAVGAAAGGVAGGAGSRRGSSYVPEKLSFAAYEKFEGQMLIKWLISTMQSNPKSSSGDANQELFNTLALQFCNNLKYVGVLKQISNEHLDCGFSPYEMYQWTHTEQPTTSLPLTPGKLDKVAAWPFSSTPSGIRALESASLASLGAGGVAGSLATIATASTASSDNQKTLQQILKKRLLNCTTLAEVHAVVNELLSSVDEPPRRPSKRCVNLTELLNASEATVYEYNKTGAEGCVKSFTDAETQTESEDCEGTCKCGQSSTK
In the case of B3, the Kd in series [4] amounted to 300 nM. In addition, in series [6], the dissociation constant (Kd) was 245 nM and the “stoichiometry N” value was found to be 2.

(Values after publication PMC3459857 (Molecular Biology of the Cell, 2012).)
